The target of one data set is Bruno (UniProt O02374 1-604). Description: EMSA.
Data set [1] has as its target T1, Pumilio RNA-binding domain (UniProt P25822 1091-1426).
T1 sequence: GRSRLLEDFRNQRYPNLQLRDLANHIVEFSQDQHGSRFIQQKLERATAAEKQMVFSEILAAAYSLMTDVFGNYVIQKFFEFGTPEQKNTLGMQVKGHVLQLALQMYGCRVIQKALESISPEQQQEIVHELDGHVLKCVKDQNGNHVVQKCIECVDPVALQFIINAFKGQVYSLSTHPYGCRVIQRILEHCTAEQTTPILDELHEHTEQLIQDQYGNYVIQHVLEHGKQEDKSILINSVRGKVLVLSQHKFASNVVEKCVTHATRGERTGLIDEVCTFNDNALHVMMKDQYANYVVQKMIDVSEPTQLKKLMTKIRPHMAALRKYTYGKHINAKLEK
Put plainly: EMSA. A general note: Mobility shift assays separate free from complexed probe on a gel.

The source of these data is doi:10.1101/285569.

UAAUCAAGAUACAUAUAUGC (ssRNA) [Scramble RNA]: the binding result (in the data set with Bruno; in data set [1]) was “no binding” in each case.
